What was measured:
[1] = target: Extra Domain B of fibronectin (EDB) (UniProt P02751); test: BIACORE SPR, EDB immobilized on the chip, analyte at 1.56, 3.125 and 6.25 nM
[2] = target: Extra Domain B of fibronectin (EDB) (UniProt P02751); test: SPR (BIACORE), EDB immobilized on the chip, construct as analyte

Chain of Extra Domain B of fibronectin (EDB) (P02751 1266-1356 limits assumed): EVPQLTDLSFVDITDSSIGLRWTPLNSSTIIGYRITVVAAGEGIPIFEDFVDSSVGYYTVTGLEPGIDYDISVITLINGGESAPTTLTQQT
Chain of L19 diabody-IL2 fusion protein, 12 amino acid linker (VH): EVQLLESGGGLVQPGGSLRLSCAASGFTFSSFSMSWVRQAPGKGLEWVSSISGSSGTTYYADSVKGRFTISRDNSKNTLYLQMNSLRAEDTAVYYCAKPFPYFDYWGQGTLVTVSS
Chain of L19 diabody-IL2 fusion protein, 12 amino acid linker (chain): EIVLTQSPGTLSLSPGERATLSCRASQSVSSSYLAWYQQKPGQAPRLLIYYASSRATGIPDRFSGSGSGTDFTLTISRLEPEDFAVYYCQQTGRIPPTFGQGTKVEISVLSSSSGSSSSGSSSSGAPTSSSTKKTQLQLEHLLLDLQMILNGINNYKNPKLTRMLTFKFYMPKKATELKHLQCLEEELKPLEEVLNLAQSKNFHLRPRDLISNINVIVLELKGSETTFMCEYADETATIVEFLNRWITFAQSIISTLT

Question: Which results are given for “L19 diabody-IL2 fusion protein, 12 amino acid linker”?
Answer: Kd [1]: 0.362 nM; koff [1]: 0.000769 s⁻¹; kon [1]: 2.13e+06 M⁻¹ s⁻¹; Kd [2]: 0.36 nM
